In PMC5450233:

B1: GST–SKIP(1-310) [not stated] / HA–KHC [rat] (parent)
chain 1: MEPGEVKDRILENISLSVKKLQSYFAACEDEIPAIRNHDKVLQRLCEHLDHALLYGLQDLSSGYWVLVVHFTRREAIKQIEVLQHVATNLGRSRAWLYLALNENSLESYLRLFQENLGLLHKYYVKNALVCSHDHLTLFLTLVSGLEFIRFELDLDAPYLDLAPYMPDYYKPQYLLDFEDRLPSSVHGSDSLSLNSFNSVTSTNLEWDDSAIAPSSEDYDFGDVFPAVPSVPSTDWEDGDLTDTVSGPRSTASDLTSSKASTRSPTQRQNPFNEEPAETVSSSDTTPVHTTSQEKEEAQALDPPDACTEL
chain 2: MADPAECSIKVMCRFRPLNEAEILRGDKFIPKFKGEETVVIGQGKPYVFDRVLPPNTTQEQVYNACAKQIVKDVLEGYNGTIFAYGQTSSGKTHTMEGKLHDPQLMGIIPRIAHDIFDHIYSMDENLEFHIKVSYFEIYLDKIRDLLDVSKTNLAVHEDKNRVPYVKGCTERFVSSPEEVMDVIDEGKANRHVAVTNMNEHSSRSHSIFLINIKQENVETEKKLSGKLYLVDLAGSEKVSKTGAEGAVLDEAKNINKSLSALGNVISALAEGTKTHVPYRDSKMTRILQDSLGGNCRTTIVICCSPSVFNEAETKSTLMFGQRAKTIKNTVSVNLELTAEEWKKKYEKEKEKNKALKSVIQHLEVELNRWRNGEAVPEDEQISAKDQKNLEPCDNTPIIDNITPVVDGISAEKEKYDEEITSLYRQLDDKDDEINQQSQLAEKLKQQMLDQDELLASTRRDYEKIQEELTRLQIENEAAKDEVKEVLQALEELAVNYDQKSQEVEDKTRANEQLTDELAQKTTTLTTTQRELSQLQELSNHQKKRATEILNLLLKDLGEIGGIIGTNDVKTLADVNGVIEEEFTMARLYISKMKSEVKSLVNRSKQLESAQTDSNRKMNASERELAACQLLISQHEAKIKSLTDYMQNMEQKRRQLEESQDSLSEELAKLRAQEKMHEVSFQDKEKEHLTRLQDAEEVKKALEQQMESHREAHQKQLSRLRDEIEEKQRIIDEIRDLNQKLQLEQERLSSDYNKLKIEDQEREVKLEKLLLLNDKREQAREDLKGLEETVSRELQTLHNLRKLFVQDLTTRVKKSVELDSDDGGGSAAQKQKISFLENNLEQLTKVHKQLVRDNADLRCELPKLEKRLRATAERVKALESALKEAKENAMRDRKRYQQEVDRIKEAVRAKNMARRAHSAQIAKPIRPGHYPASSPTAVHAVRGGGGSSNSTHYQK

Variants of: B1
Assay: GST pull-down, immunoblot (IB: HA) quantified
Conditions: with HA–KHC [rat]; lysates of 293T cells co-expressing HA-KHC and HA-KLC2 (kinesin-1 tetramer); three independent experiments; parent: 1; read off a plot

Variant | ratio to parent
chain 1 D220A F221A G222A | 0.38
chain 1 D238A G239A D240A | 0.98

Second part, the variant after the results:

ratio to parent | Variant
0.5 | chain 1 E217A D218A Y219A
0.97 | chain 1 W236A E237A
